According to article PMC7588443 (Nature Communications, 2020):

B1: unnamed (parent)
chain 1: ECPDRWRAEIDLGLPPGVQVGDLLRNEQTMGSLRQVYLLAVQANSITDHLKRFDAVRVPESCRGVVEAQVAKLEAVRSVIWNTMISLAVSGIEMDENGLKALLDKQAGDSLALMEMEKVATALKMD
chain 2: MQKVSLRVTPRLVLEVNRHNAICVATNVPEFYNARGDLNIRDLRAHVKARMISSQFCGYVLVSLLDSEDQVDHLNIFPHVFSERMILYKPNNVNLMEMCALLSMIENAKSPSIGLCREVLGRLTLLHSKCNNLDSLFLYNGARTLLSTLVKYHDLEEGAATPGPWNEGLSLFKLHKELKRAPSEARDLMQSLFLTSGKMGCLARSPKDYCADLNKEEDANSGFTFNLFYQDSLLTKHFQCQTVLQTLRRKCLGSDTVSKIIP

Variants of: B1
Assay: BLI
Conditions: with partner chain of the complex shown; 10 μg ml−1 His-tagged BBRF2Δ; BSRF1Δ(M63D) at 500, 250, 125, 62.5, 31.3, 15.6 nM

Variant	Kd [nM]
chain 1 M30D	126

Same assay, conditions: with partner chain of the complex shown; 10 μg ml−1 His-tagged BBRF2Δ; BSRF1Δ(N59K) at 500, 250, 125, 62.5, 31.3 nM

Variant	Kd [nM]
chain 1 N26K	59.9

Same assay, conditions: with partner chain of the complex shown; 10 μg ml−1 His-tagged BBRF2Δ(F209K); BSRF1Δ at 500, 250, 125, 62.5, 31.3, 15.6 nM

Variant	Kd [nM]
chain 2 F193K	53.9
